Measurements reported in a protein production outcome set (Wang et al. 2014).

Assay: label from the status in PepcDB records

Row | Sequence | protein production
1 | MSRSLVFGTAGLALLLAAGGLLYSFGPDERRARAAPTPPDTTDTSGVYSQRAPSRNGIGKVYMGREISKVMGHRGANWLERPARAEKERPDLLVDSLPLGPSDTVADIGAGTGYLSFRVAPRVPQGNILAVDIQPEMLNMMRERIDERGVDNVTPIRGTVTDPQLPADSVDLAYMVDAYHEFSHPYEMMTALMEDLTPGGRVVLVEYPREDPSIPIKTLHKMTEAQAKKEMRAVGLEWVETKDMLPRQHFMVFRKPVE | failed
2 | MSSVPSAGQVRRRRVFYIPGYDPIHPRRYRELYRKESAEQARISGYSVTLKPKTTKGPYGWHVRSEQDGAEVAADVEVLVWSDIVRGSMSNTIPATYAQLARTAWTYIASGVLWRLMRLRKGPVIAALYPVGMLLAQLFAALFLVWLGWRLGGLTGWPLAALAGMGVGAGAGVYLLRWFRSKDGTFFAYYLMHDYAYSARWRGANPPELEARIGDFAERIAGALASDADEVLVVGHSSGAHVGVSVLADLIRAGRVPADGPALGFLTLGQVVPMVSFLPEAQRLRADLHYLCTRDELAWVDVSAPGDGCAFALCDPVSVSGVAPATGKRWPLVLSAAFTKTLSPARWAELRWRFFRLHFQYLCAFDQVGDYDYFRITAGPQTLAARYRDRAPSKSRIERAVSKYTDMGAS | failed
3 | MSAPQVWPWTNQTPPLKGDPTPEPKPQERPTRLKHPLDAPHSVYGVDKWGKGLIVVTEEGEIGLKNPLRPEADAVSLPGILHDLEQRGIRAPMILRISSYLENEICHINDSFADAIARSGYKGAYRGVFPIKVNQQAQVIDRIVEFGHRYSYGLEAGSKPELVIALAHKLATDALIVCNGVKDAEFVRLAILSRKLGFNTVIVLESPKEADTVIAVYEELGIEPLLGVRVKLTNQISGKWEESSGDRSSFGMNTDQLVRVVDKLRDAGLIHCLKLQHSHLGSQVPDVNDVRRAVGEACRYFTELSAEGVPLTHLDLGGGMGVDYTGEKRATENSINYTVEEYCANVVETVAYAMDEAGIDHPTIVTESGRAVVATSSLLVFNVLESTLYDAPTAPGTEPDDHHLVSDLAAVNGYLTPARLQECWNDATFYRNELRALFRRGYVDLRQMARAERIYLSLMARIKTMVAEVEAETDLDAQMEKIADIYHCNFSLFQSLPDVWAIDQLHPIVPLQMLNEAPDRRAVLSDITCDSDGKVDRFILADGVSPSLPVHSLPEDQDYYLGVFFVGAYQETLGDLHNLFGDTNVVTIDLRADGGFDLLHEQEGDTISEVLSYVEYDPADCVAAFRKLVDGAISNGCLKASERKLIIGAYRDSINGYTYYE | failed
4 | MTSTTTAPLVGLVMGSDSDWPVMEAAADALAEFGIPFEADVVSAHRMPTEMIRYGQTAHERGLRVIIAGAGGAAHLPGMLASVTPLPVIGVPVPLKTLDGMDSLLSIVQMPAGVPVATVSIAGARNAGLLAVRILASGTDDLASKLRADLLTFAQELNDVATKKGENLRHKVEEVFSPANASARSSR | failed
5 | MTEAPRKITDDPYGAWHLIRRLVMEQASAYWRRYALAFGLMAIAAAATSGSAFLLGKVINQAYVDRDLQGIMFWSVVTLVVFSLKGAATYGQSVILTQIKNAILANNQRRMFHKLMSESIGFFSQRHSSEFLARLTAGANSVTEVLNLLINAIGRDLLSLIGLVIVMVVQDPFMALFGLLVAPPAAFVVRKLVKRVKGLALTQFTGNAQILETMQESLQGIRTVKAFSLEKTMSDRIDANIAAVQANADKMAKVSNRSSPLMETLGGFAVAASLMYGGYRVVATGATPGEFFSFLTAFLLAYEPAKRLARLNIELNSGLVGARMLLEIIDSPPSEPDDSHKPALQLTEARVEFDHVSFAYRPDEPVLNAMSFVAEPGKMTALVGPSGGGKSTVLALLLRLYEVQSGEIRIDGQSTSTVSRESLRRQTAYVGQDVYLFRDTVRANIAFGKLGATEDEIVAAAKAACAHDFIMGFPLGYDTPVGEHGAQLSGGQRQRIAVARALLRDAPIVLLDEATAALDSESEKLVQEAIDRLARGRTTIVIAHRLHTIMHADSILVVEAGEIVEQGRHDDLLRRSGRYASFFRLQQRHATPLAPADATA | failed
6 | MIRQKSIRRVKPPEDYQARLATPFAVLGLRTDEDWLTDIEYLPPDTPTLVPQTPLAREVCDQLQAYLADPGFVFDLSLHIGGTVHQRRVWQAIQDIPAGATRSYAAIAVELHSAPRAVGQACGANRLPIVIPCHRVIAKSGGLGGFMNASDGLPLTIKRWLLQHEGI | failed
7 | MTPTPLHSITPFSMLDFPSMLSCILWFSGCNLACSYCYNPEFLKESGKIDLEGLLSFLRSRVGLLEGVVFSGGEATLFAGLPLWMEEVRSLGFKIKLDTNGTNPAMLKELLQKGYLDYVAMDFKGKEERFGMITGREFYGRFLESLEILLSSSIPFEIRTTVHSYLLQEEDIAEMAALLKERGYKGAFYLQHFVGEKETLKPLPESRRLKLDEEAIETKIIWR | failed
8 | MQSKRGRPRNIETQKAILSASYELLLESGFKAVTVDKIAERAKVSKATIYKWWPNKAAVVMDGFLSAAAARLPVPDTGSALNDILIHATSLANFLISREGTIINELVGEGQFDSKLAEEYRVRYFQPRRLQAKQLLEKGIKRGELKENLDIELSIDLIYGPIFYRLLVTGEKLDDSYVHDLVINAFEGIRLR | not failed
9 | MNRINYIRQAEKKYHDLCYEQYKLFETGSWLYKPVKTVMDLMDHFEGQNNLQVLDLGSGVGRNSIPIAQQIQNTSGTVTCVDLLDSALTKLKTYTKEHGVFEVIKTEQAAIENYYIVPNTYDYIVAVSSLEHVQSEEDLTNVLHSIKEGTKTGGINCLIINSNIQEIDLHTKEELDALIEINLPTEDMIHLLKSIYKEWKEIKVEIKELVYDIVRDEKQIQLKTNAITFVVQK | failed
10 | MKLNIKISDKLKLFFKIAFVSVVILFIVREFTSVFKNFNSEYFFMYRNKLDFLNLLIIAALGIISYIPLSFYDFILKRKVGIRLKNRKLYKYSWIASSIASLLGFGGATSLAFKQYFYGDYVDDKKKLLKEIGKIVALNLTGLSIVCCTYMGIRISSWNNLGIIKYAIGIIALYAPGFIIYSAYKYSKTKDKLEFFSTLGIIFISFLEWLTTIILIYATLRITGASISVLTFLPIYIEAAVVGMISMIPGGIGTFDLTFMTGLEVLGIPIEQTLLVIILYRISYYIVPALIGVLLFVHDFGGKINKKFNGLPYEIVSKVAYKIVVSLVFISGAIIVLSNIAPQYLLKIKLLKEILGKQVLGLSIGMSVVLGFLIMLAALMLKYRAKSIYKASMVLFILGIILSLTKGINPYELVFLIIVAYLLYLSKRMFYRDSFVVSCKNTLIDSGILIASFSIYFFILITFGTHLKYVGIVRKMPYKMAYKFGFIAFALVTVIYVAIYFLNIRRKIPVKTFDQCSEYVEKIIEEYKGDSLTHLVFLKDKYIYLNEDKDLFIQYEVYGDKLFVLGNPVGNNENLFREIEKFCEYADNYGYTPVFYQVNDEMISYLHSNGYDFMKIGEEAKVDVKEFKVVGNKMKSLKTSRSKVTKEGYTFHMVEPPFSKEFLDSLREISDEWLDGRKEKGFSVGFFDEDYLNKAPIAILKDREGEIKAFANIMYMYDNESFSVDLMRFSKNTPRGVMDFMFINLIEYGKENGYEIFNMGMAPLANVGLSKYAFWNEKLALQFYENGQALYSFKGLRRFKEKFSHNWEYKYIAYRRNTSILITVIQAAIVCSRNRNVDESIVVRNLKSLIK | failed
11 | EAPLLYGDSSPEIVLVGHGSTYGVIKEIVDIFSKDKKIAMMHFSQIYPFPERDRFDYIEFLKNANLVISVENNATGQFAKLMRAETGFEFARQILKYDGRPFTIEKLKEEIDAC | not failed
12 | MANWRGAGDSLSTGTGGSEAPPRKSPARLHQWRKLRVSHDDRTCPYQRCRHHLLRRIADARRRYRLLCRRSEHEHSRRVDRSFAEARHGRRRPGRCRSSHPQGCGHRQRDPHKIMSAAPAAPALDALGPDTPAHTVDAFHRGRFWLVQPKHGGHRAGMDAMMLAASVPSVFGGRLADFGAGAGAAGLAVLSRCPAARAVLVERAPEMAAFASATLAHPGNAHLSDRASVLVADVTVSGQARVAAGLADNDFDYVIMNPPFNAARDRATPDRLRKEAHVMEDGLFESWIRSAAAVVRPRGGLAVIARPEQLGAILDAMSGRFGDAEMLAVHPRPDAAAIRIIVRAALGARGKLAIRPPLMLHAQAGNGPDERSEMITNGLASLFGD | failed
13 | MKIKKNMIKGILLTTIVSFLAKIAADYLPSLGGEAIAMLLGILIGNTVFKDEKWMPGIKWAEKFPIEIGIALMGLTVTLRTISSLKIQGVIFILFQMMATILFVLWVGRRFIKVPSESAMLMASGNAVCGSSAIAAVAPAIRASDDQRRTAVATVSLSGVVLLFLLPVIGPNIFHGNNLLIGALIGGTVQSVGQVVGTASLVNQAVVTYATLFKMLRVILLSVVVFVFARFADRTRADEIKTDSKKVAVPWFVIVFIIFVFINSFFNLSNTVNTGAKSIANFFGIVNLAGIGLNLKWQTVKNSGQKFMIYGLVTVCFQILFAVLMINVLFG | failed
14 | PVGAVMTPRPEVDMIDLSDPPDQIRATFASSPHSRLPATDGDRDDPIGIIQSKDVLEVYLRGETPDFRALVRDAPVIPASADARDALIMLRNASVHMGLVYDEFGGFEGVVSTADILESIVGAFSSEDG | failed
15 | MAANMYRVGDYVYFENSSSNPYLIRRIEELNKTANGNVEAKVVCFYRRRDISSTLIALADKHATLSVCYKAGPGADNGEEGEIEEEMENPEMVDLPEKLKHQLRHRELFLSRQLESLPATHIRGKCSVTLLNETESLKSYLEREDFFFYSLVYDPQQKTLLADKGEIRVGNRYQADITDLLKEGEEDGRDQSRLETQVWEAHNPLTDKQIDQFLVVARSVGTFARALDCSSSVRQPSLHMSAAAASRDITLFHAMDTLHKNIYDISKAISALVPQGGPVLCRDEMEEWSASEANLFEEALEKYGKDFTDIQQDFLPWKSLTSIIEYYYMWKTTDRYVQQKRLKAAEAESKLKQVYIPNYNKPNPNQISVNNVKAGVVNGTGAPGQSPGAGRACESCYTTQSYQWYSWGPPNMQCRLCASCWTYWKKYGGLKMPTRLDGERPGPNRSNMSPHGLPARSSGSPKFAMKTRQAFYLHTTKLTRIARRLCREILRPWHAARHPYLPINSAAIKAECTARLPEASQSPLVLKQAVRKPLEAVLRYLETHPRPPKPDPVKSVSSVLSSLTPAKVAPVINNGSPTILGKRSYEQHNGVDGNMKKRLLMPSRGLANHGQARHMGPSRNLLLNGKSYPTKVRLIRGGSLPPVKRRRMNWIDAPDDVFYMATEETRKIRKLLSSSETKRAARRPYKPIALRQSQALPPRPPPPAPVNDEPIVIED | failed
16 | RLKVEDALSYLDQVKLQFGSQPQVYNDFLDIMKEFKSQSIDTPGVISRVSQLFKGHPDLIMGFNTFLPPGYKIEVQTNDMVNVTTPGQVHQIPTHGI | failed
17 | MAFIAVHDGLTGLHNRTFLTDHFDTLIKGAHRRRERLAVVQLDLDRFKQINDTLGHAAGDYVLVVTAQRMRDSCRASDLCARLGGDEFVMILNGAGSTEDINMLARRILAHINEPIVFQGTTILPGASGGIAVYPIDADNAQDLLVHADLALYSAKKLGGGNFSFFSEELRRELDYRKQLEHDIKVAISERAFQVYFQPQVSLTDGTISGIEALVRWNHHERGMISPGEFIPVAEKCGFMPEIGRIVIGKAINEAAEWNRAGIAFGRLAVNVSGTELREHDFDAFLFETLEKAGLPPQKLSLEIVESVILDDEKTGIAAKLRHIRAAGIHLELDDFGTGYASLSHVNPNEIDRLKIDRRFVQNIHENGDNSKIVRAITELARGLGISIVAEGAETEAELDSLMAIGCDQVQGYSIAFPMPQDKALEWLTARMPKKAKLRVLQGSLA | failed
18 | MRVVALVPGGIGDQILFFPTLDDLKRYYPNAQLDVVVEPRSKAAYRVSKSVNDILTFDYKDRNSLADWGNLVGTIRDREYDVVITVGQSWLVGLFLWLTGIPTRIGYQGKGRSFLTKTVPFKPSQYAAAVYHDLLAPIGITTPTPELAVNVPKPDIDWANSEQKRLGVNETGYVLIYGGSSWVSQPQALETIYPAENWQEIIQDFRQKQPDLPVVVIQGPDDEQFVRSLRDYSLDIKVTSPDNVGKLTAMIAGANLMLTTDSAPLHLSVAVQTYTIALFGSTDPVKLLPNSDKLLGIKSSTGRVADILPKAVLEKVWGGLEHHHHHH | not failed
